The text below walks through data of patent US20120134993A1.

For assay [1], the target named is human FGF-9 (human) (UniProt P31371). Kind of assay: cell-based or functional assay.
Assay [2] concerns the target recombinant human FGF1 (human) (UniProt P05230). Put plainly: cell-based or functional assay.
The target of assay [3] is recombinant human FGF2 (human) (UniProt P09038). Kind of assay: cell-based or functional assay.
Assay [4] deals with recombinant human FGF4 (human) (UniProt P08620). Kind of assay: cell-based or functional assay.
In assay [5] the target is recombinant human FGF6 (human) (UniProt P10767). Put plainly: cell-based or functional assay.
The target of assay [6] is recombinant human FGF-8b (human) (UniProt P55075). Put plainly: cell-based or functional assay.
Assay [7] deals with recombinant human FGF-17 (human) (UniProt O60258). Kind of assay: direct binding ELISA, FGF-17 coated, FGFR-Fc titrated with heparin, anti-human Fc-HRP.
The target of assay [8] is recombinant human FGF-8b (human) (UniProt P55075). Put plainly: direct binding ELISA, FGF-8b coated, FGFR-Fc titrated with heparin, anti-human Fc-HRP.
The target in assay [9] is human VEGF-A (human) (UniProt P15692). Put plainly: SPR (Biacore T100), VEGF-A immobilized, 100 nM VEGFR-2-Fc5 injected, 1:1 dissociation fit.
Sequence of human VEGF-A (human) (P15692 other isoform, or with tags, fused parts or gaps limits assumed): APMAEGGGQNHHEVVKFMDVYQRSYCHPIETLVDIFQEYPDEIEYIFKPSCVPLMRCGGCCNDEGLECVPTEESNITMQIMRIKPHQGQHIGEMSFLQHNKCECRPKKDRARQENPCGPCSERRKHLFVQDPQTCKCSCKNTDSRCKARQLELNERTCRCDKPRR

Sequence of recombinant human FGF2 (human) (P09038 143-288 limits assumed): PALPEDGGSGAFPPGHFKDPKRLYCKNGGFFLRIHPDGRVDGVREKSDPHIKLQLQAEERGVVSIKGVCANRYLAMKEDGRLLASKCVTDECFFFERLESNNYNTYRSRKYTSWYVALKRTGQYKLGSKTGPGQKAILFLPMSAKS
Sequence of recombinant human FGF6 (human) (P10767 83-208 limits assumed): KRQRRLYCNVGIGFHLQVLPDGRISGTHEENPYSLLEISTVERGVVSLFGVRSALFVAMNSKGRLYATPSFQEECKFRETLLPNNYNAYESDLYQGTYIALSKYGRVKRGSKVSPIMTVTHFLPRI
Sequence of recombinant human FGF1 (human) (P05230 16-155 limits assumed): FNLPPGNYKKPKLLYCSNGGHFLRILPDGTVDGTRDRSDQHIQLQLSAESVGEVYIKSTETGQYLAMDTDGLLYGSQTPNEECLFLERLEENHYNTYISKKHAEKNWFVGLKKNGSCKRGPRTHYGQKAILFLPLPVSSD
Sequence of recombinant human FGF-8b (human) (P55075 other isoform, or with tags, fused parts or gaps limits assumed): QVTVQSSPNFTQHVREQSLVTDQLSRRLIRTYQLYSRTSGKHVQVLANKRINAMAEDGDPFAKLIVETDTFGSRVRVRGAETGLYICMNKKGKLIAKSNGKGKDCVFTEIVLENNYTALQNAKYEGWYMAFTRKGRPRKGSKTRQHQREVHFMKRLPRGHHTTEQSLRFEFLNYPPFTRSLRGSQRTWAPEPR
Sequence of recombinant human FGF4 (human) (P08620 31-206 limits assumed): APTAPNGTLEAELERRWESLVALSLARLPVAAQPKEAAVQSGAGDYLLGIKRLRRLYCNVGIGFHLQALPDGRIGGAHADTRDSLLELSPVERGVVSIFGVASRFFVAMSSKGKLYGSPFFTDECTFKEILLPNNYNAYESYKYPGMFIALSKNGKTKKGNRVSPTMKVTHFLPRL
Sequence of human FGFR1-Fc (R&D Systems) (P11362 22-376): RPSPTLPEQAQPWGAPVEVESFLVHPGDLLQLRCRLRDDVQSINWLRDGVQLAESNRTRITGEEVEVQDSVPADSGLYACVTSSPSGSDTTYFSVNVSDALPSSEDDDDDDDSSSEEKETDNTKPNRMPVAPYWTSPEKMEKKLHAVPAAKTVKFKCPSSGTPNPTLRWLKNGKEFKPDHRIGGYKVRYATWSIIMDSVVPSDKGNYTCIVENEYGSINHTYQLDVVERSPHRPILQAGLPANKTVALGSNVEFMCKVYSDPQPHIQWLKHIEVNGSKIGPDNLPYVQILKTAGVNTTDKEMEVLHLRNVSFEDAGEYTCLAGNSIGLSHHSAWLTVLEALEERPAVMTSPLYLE
Sequence of recombinant human FGF-17 (human) (O60258 23-216 limits assumed): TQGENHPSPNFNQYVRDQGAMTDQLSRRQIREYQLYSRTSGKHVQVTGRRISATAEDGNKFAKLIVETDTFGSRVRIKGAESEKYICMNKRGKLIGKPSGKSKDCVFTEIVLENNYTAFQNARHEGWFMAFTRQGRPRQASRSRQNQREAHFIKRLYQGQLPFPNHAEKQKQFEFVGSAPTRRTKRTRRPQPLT

In [1], “human FGFR1-Fc (R&D Systems) (from UniProt P11362 22-376) (Fc fusion)” had a Proliferation IC50, FGF-9-stimulated HCO osteoblasts (3H-thymidine) of 1.1 nM. The IC50, FGF-stimulated HUVEC proliferation (3H-thymidine) came to 0.63 nM in [2], 0.92 nM in [3], 0.53 nM in [4] and 0.42 nM in [5].
Consider “human FGFR2-Fc (R&D Systems) (from UniProt P21802 22-377) (Fc fusion)”, for which the Proliferation IC50, FGF-9-stimulated HCO osteoblasts (3H-thymidine) in assay [1] worked out at 0.49 nM. In [6], the Proliferation IC50, FGF8b-stimulated LNCap cells (3H-thymidine) was 0.29 nM. Moreover, the IC50, FGF-stimulated HUVEC proliferation (3H-thymidine) in assay [2] amounted to 0.42 nM; in [3] it was 0.85 nM; in [4], 0.48 nM; in assay [5], 0.3 nM.
The substance “human FGFR3-Fc (R&D Systems) (from UniProt P22607 23-375) (Fc fusion)” displayed a Proliferation IC50, FGF-9-stimulated HCO osteoblasts (3H-thymidine) in [1] of 0.44 nM. The Proliferation IC50, FGF8b-stimulated LNCap cells (3H-thymidine) in assay [6] stood at 0.79 nM. Further, the IC50, FGF-stimulated HUVEC proliferation (3H-thymidine) in [2] is 0.53 nM; in assay [3], 5.5 nM; in assay [4] it was 1.06 nM; in assay [5] it was 9.96 nM. Moreover, the results for the IC50 in [7] and in assay [8] were 30.1 nM and 23.4 nM, respectively.
On to “FGFR2alphaIIIc(145-377)(P253R) Fc5, truncated FGFR2-Fc P253R (A2561F) (Fc fusion)”, for which, in assay [6], the Proliferation IC50, FGF8b-stimulated LNCap cells (3H-thymidine) came to 0.01 nM.
As for “VEGFR-2-Fc5 (from UniProt P0DOX5 218-449) (Fc fusion)”, the koff in [9] turned out to be 0.0002 s⁻¹.
On to “FGFR2alphaIIIc(145-377)(S252W) Fc5, truncated FGFR2-Fc S252W (A2560F) (Fc fusion)”, for which the Proliferation IC50, FGF8b-stimulated LNCap cells (3H-thymidine) in [6] stood at 0.01 nM.
For the substance “FGFR2alphaIIIc(145-377) Fc5, truncated FGFR2-Fc (A2559F) (Fc fusion)”, in [6], the Proliferation IC50, FGF8b-stimulated LNCap cells (3H-thymidine) amounted to 0.3 nM.
